Experimental data from US20260116991A1 (HAINAN SIMCERE ZAIMING PHARMACEUTICAL, published 2026).

B1: hAb001H1aL1a (antibody, human IgG1, V domains shown)
VH: EVQLVESGGGLVQPGGSLRLSCAASGFSFNTNAMNWVRQAPGKGLEWVGRIRSKSNNYATYYADSVKGRFTISRDDSKNSLYLQMNSLKTEDTAVYYCVRDGYYVLFAYWGQGTLVTVSS
VL: DIVMTQTPLSLPVTPGEPASISCRFSQSIVNSDGNTYLEWFLQKPGQSPQLLIYKVSNRFSGVPDRFSGSGSGTDFTLKISRVEAEDVGVYYCFQGSHVPFTFGQGTKLEIK
notes: Humanized F2.169.2; VH H1a + VL L1a; expressed as human IgG1
B2: hAb001H1aL1b (antibody, human IgG1, V domains shown)
VH: EVQLVESGGGLVQPGGSLRLSCAASGFSFNTNAMNWVRQAPGKGLEWVGRIRSKSNNYATYYADSVKGRFTISRDDSKNSLYLQMNSLKTEDTAVYYCVRDGYYVLFAYWGQGTLVTVSS
VL: DIVMTQTPLSLPVTPGEPASISCRFSQSIVNSNANTYLEWFLQKPGQSPQLLIYKVSNRFSGVPDRFSGSGSGTDFTLKISRVEAEDVGVYYCFQGSHVPFTFGQGTKLEIK
notes: Humanized F2.169.2; VH H1a + VL L1b; expressed as human IgG1
B3: hAb001H2L1 (antibody, human IgG1, V domains shown)
VH: EVQLVESGGGLVQPGGSLRLSCAASGFSFNTNAMNWVRQAPGKGLEWVGRIRSKSNNYATYYADSVKDRFTISRDDSKSSLYLQMNSLKTEDTAVYYCVRDGYYVLFAYWGQGTLVTVSS
VL: DIVMTQTPLSLPVTPGEPASISCRFSQSIVNSNGNTYLEWFLQKPGQSPQLLIYKVSNRFSGVPDRFSGSGSGTDFTLKISRVEAEDVGVYYCFQGSHVPFTFGQGTKLEIK
notes: Humanized F2.169.2; VH H2 + VL L1; expressed as human IgG1
B4: hAb001H2L1a (antibody, human IgG1, V domains shown)
VH: EVQLVESGGGLVQPGGSLRLSCAASGFSFNTNAMNWVRQAPGKGLEWVGRIRSKSNNYATYYADSVKDRFTISRDDSKSSLYLQMNSLKTEDTAVYYCVRDGYYVLFAYWGQGTLVTVSS
VL: DIVMTQTPLSLPVTPGEPASISCRFSQSIVNSDGNTYLEWFLQKPGQSPQLLIYKVSNRFSGVPDRFSGSGSGTDFTLKISRVEAEDVGVYYCFQGSHVPFTFGQGTKLEIK
notes: Humanized F2.169.2; VH H2 + VL L1a; expressed as human IgG1
B5: hAb001H2L1b (antibody, human IgG1, V domains shown)
VH: EVQLVESGGGLVQPGGSLRLSCAASGFSFNTNAMNWVRQAPGKGLEWVGRIRSKSNNYATYYADSVKDRFTISRDDSKSSLYLQMNSLKTEDTAVYYCVRDGYYVLFAYWGQGTLVTVSS
VL: DIVMTQTPLSLPVTPGEPASISCRFSQSIVNSNANTYLEWFLQKPGQSPQLLIYKVSNRFSGVPDRFSGSGSGTDFTLKISRVEAEDVGVYYCFQGSHVPFTFGQGTKLEIK
notes: Humanized F2.169.2; VH H2 + VL L1b; expressed as human IgG1
B6: hAb007LH2L1 (antibody, human IgG1, V domains shown)
VH: EVQLVQSGAEVKKPGSSVKVSCKASGYTFTDYEMHWVRQAPGQGLEWMGTIDPETGNTAYNQKFKGRVTITADKSTSTAYMELSSLRSEDTAVYYCTRPYSLTYWGQGTLVTVSS
VL: DIVMTQTPLSLPVTPGEPASISCRSSQSFVHSNGDTYLQWYLQKPGQSPQLLIYKVSNRFSGVPDRFSGSGSGTDFTLKISRVEAEDVGVYYCFQGSHVPYTFGQGTKLEIK
notes: Humanized F3.81.19; VH H2 + VL L1; expressed as human IgG1
B7: hAb003LH1L1 (antibody, human IgG1, V domains shown)
VH: EVQLVQSGAEVKKPGSSVKVSCKASGYTFSDYEMHWVRQAPGQGLEWMGTIDPETGNTAYTQKFMDRVTITADKSTSTAYMELSSLRSEDTAVYYCTRGYSFTYWGQGTLVTVSS
VL: DIVMTQTPLSLPVTPGEPASISCRSSQNIVHSNGNTYLQWYLQKPGQSPQLLIFKVSNRFSGVPDRFSGSGSGTDFTLKISRVEAEDVGVYYCFQGSHVPFTFGQGTKLEIK
notes: Humanized F2.154.1; VH H1 + VL L1; expressed as human IgG1

How the values were obtained:
[1] = biological target: T1, human GPC3 on CHO-K1-human GPC3 cells (CHOK1-hGPC3.2B5) (human, UniProt P51654 25-554); assay: FACS, CHOK1-hGPC3.2B5 cells;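 further: flow cytometry of humanized antibodies binding to the cells over one hour in the cold, read as cell mean fluorescence intensity, with EC50 obtained by curve fitting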
T1 construct: whole, on cells

[2] = biological target: biotinylated labeled human GPC3 protein (produced in-house) (human, UniProt P51654 25-559, limits assumed, biotinylated (Dojindo, Cat. No. LK03); sites not stated); assay: ELISA, biotinylated human GPC3 protein

Row | Binder | EC50 [1] [nM] | Max MFI [1] [MFI] | OD450 at 0.0008 nM [2] [OD450] | OD450 at 0.004 nM [2] [OD450] | OD450 at 0.02 nM [2] [OD450] | OD450 at 0.11 nM [2] [OD450] | OD450 at 0.53 nM [2] [OD450] | OD450 at 2.67 nM [2] [OD450] | OD450 at 13.33 nM [2] [OD450] | OD450 at 66.66 nM [2] [OD450]
1 | B1 | 1.63 | 2530 | – | – | – | – | – | – | – | –
2 | B2 | 0.325 | 3070 | 0.174 | 0.298 | 0.809 | 1.93 | 2.5 | 2.62 | 2.72 | 2.76
3 | B3 | 0.359 | 3550 | 0.169 | 0.324 | 0.895 | 1.97 | 2.5 | 2.6 | 2.58 | 2.6
4 | B4 | 6.17 | 2550 | 0.096 | 0.141 | 0.437 | 1.53 | 2.27 | 2.42 | 2.57 | 2.58
5 | B5 | 0.455 | 3370 | 0.154 | 0.287 | 0.787 | 1.94 | 2.46 | 2.52 | 2.53 | 2.67
6 | B6 | 6.56 | 6190 | 0.121 | 0.233 | 0.654 | 1.72 | 2.26 | 2.26 | 2.33 | 2.32
7 | B7 | 1.42 | 5220 | 0.16 | 0.427 | 1.19 | 2.15 | 2.5 | 2.47 | 2.57 | 2.49
